Results on 3 proteins are retold here after PMC3216493 (Scientific Reports, 2011).

B1: HBc149H6 (contiguous truncated HBV core protein, aa 1-149, with C terminal His6) (domain or fragment)
chain: MDIDPYKEFGATVELLSFLPSDFFPSVRDLLDTASALYREALESPEHCSPHHTALRQAILCWGELMTLATWVGVNLEDPASRDLVVSYVNTNMGLKFRQLLWFHISCLTFGRETVIEYLVSFGVWIRTPPAYRPPNAPILSTLPETTVV
B2: SplitCore183 (split subunit of coreN plus coreC183) (complex)
chain 1: MDIDPYKEFGATVELLSFLPSDFFPSVRDLLDTASALYREALESPEHCSPHHTALRQAILCWGELMTLATWVGVNLEDP
chain 2: MASRDLVVSYVNTNMGLKFRQLLWFHISCLTFGRETVIEYLVSFGVWIRTPPAYRPPNAPILSTLPETTVVRRRGRSPRRRTPSPRRRRSQSPRRRRSQSRESQC
B3: SplitCore149 (split subunit of coreN plus coreC149) (complex)
chain 1: MDIDPYKEFGATVELLSFLPSDFFPSVRDLLDTASALYREALESPEHCSPHHTALRQAILCWGELMTLATWVGVNLEDP
chain 2: MASRDLVVSYVNTNMGLKFRQLLWFHISCLTFGRETVIEYLVSFGVWIRTPPAYRPPNAPILSTLPETTVV

The series deals with the molecule itself. As to the kind of experiment: native gel or EMSA.
For B1, the binding result is on record as “binds”.
On to B2, for which the binding result was “binds”.
As to B3, the binding result is “binds”.
